PMC4441819

Molecular target: CH67 Fab, critical dipeptide VD changed to MD (human)
Assay: BLI

## HA A/Solomon Islands/03/2006 globular head (from UniProt A7Y8I1) (domain or fragment)
  Kd: 8.5 µM
  koff: 0.00478 s⁻¹
  kon: 56200 M⁻¹ s⁻¹
